US20210371505A1 (Regeneron, published 2021)

Experiments:
Assay in all cases: cell-based or functional assay
[1] = target: T1, Hemagglutinin of influenza virus A/Aichi/02/1968-PR8-X31 (H3N2) (Influenza A virus …, UniProt P03437 17-566)
[2] = target: T1, Hemagglutinin of influenza virus …; remark: listed apart in the source
[3] = target: Hemagglutinin of influenza virus A/Philippines/01/1982 (H3N2) (Influenza A virus A/Philippines/01/1982 …)
[4] = target: Hemagglutinin of influenza virus A/Shanghai/01/2013-PR8 (H7N9) (Influenza A virus …)

B1: H1H14611N2 (antibody, V domains shown)
VH: EVQLVESGGGLVKPGGSLRLSCAASGFTFSGFSMNWVRQVPGKGLEWVSSISTSGNYMYYADSVKGRFTISRDNAKKSFSLQMNSLRAEDSAIYYCARGGGYNWNLFDYWGQGSLVTVSS
VL: EIVLTQSPGTLSLSPGERATLSCRASQSLNSNYLAWYQQKPGQAPRLLIYGASSRATGIPDRFSGSGSGTDFTLTITRLESEDFAVYYCQQYGNSPLTFGGGTKVEIK
- EC50, complement-dependent cytotoxicity of virus-infected MDCK cells [1]: 140 nM
- IC50 of neutralization, cell viability microneutralization assay on MDCK cells [2]: 7.83 nM
- IC50 of neutralization, cell viability microneutralization assay on MDCK cells [3]: 68.4 nM
- IC50 of neutralization, cell viability microneutralization assay on MDCK cells [4]: 405 nM
